Assay results: patent US20060193821, “Aptamers to the human IL-12 cytokine family and their use as autoimmune disease therapeutics” (published 2006)

What was measured:
[1] = target: T1, IL-23 (mouse, p19/p40 heterodimer) (Mus musculus, UniProt Q9EQ14;P43432 SEQ:22-196,SEQ:23-335); assay: filter; 1X PBS, 0.1 mg/mL BSA, 30 min RT; conditions: tags: isolated in-house; label: 32P
T1 sequence 1: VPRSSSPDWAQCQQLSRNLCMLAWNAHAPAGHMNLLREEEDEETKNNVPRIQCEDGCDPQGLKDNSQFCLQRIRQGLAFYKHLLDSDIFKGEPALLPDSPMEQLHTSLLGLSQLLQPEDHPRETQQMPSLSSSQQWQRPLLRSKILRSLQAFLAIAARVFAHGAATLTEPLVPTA
T1 sequence 2: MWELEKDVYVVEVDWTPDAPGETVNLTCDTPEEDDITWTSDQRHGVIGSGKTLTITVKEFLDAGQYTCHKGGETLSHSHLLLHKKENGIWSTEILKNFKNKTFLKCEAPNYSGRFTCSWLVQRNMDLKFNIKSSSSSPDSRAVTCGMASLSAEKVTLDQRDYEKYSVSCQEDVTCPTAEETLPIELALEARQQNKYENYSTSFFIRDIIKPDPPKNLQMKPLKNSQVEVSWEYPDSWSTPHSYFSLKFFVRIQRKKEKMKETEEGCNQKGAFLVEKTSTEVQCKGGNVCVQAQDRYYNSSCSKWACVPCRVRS
Method: (§1) rRfY mIL-23 Protein Binding Analysis: Dot blot binding assays were performed throughout the selections to monitor the protein binding affinity of the pools as previously described. When a significant level of binding of RNA in the presence of mIL-23 was observed, the pools were cloned using a TOPO TA cloning kit (Invitrogen, Carlsbad, Calif.) according to the manufacturer's instructions. For both mIL-23 selections, the Round 7 pool templates were cloned, and 16 individual clones from each selection were assayed using an 8-point mIL-23 titration. Seven of the 32 total clones screened had specific binding curves and are listed below in Table 16. […] Clones with high affinity to mIL-23 were subsequently screened for protein binding against mouse IL-12, human IL-23 and human IL-12 in the same manner.

[2] = target: T2, IL-23 (human, p19/p40 heterodimer) (Homo sapiens, UniProt Q9NPF7;P29460 SEQ:20-189,SEQ:23-328); assay: filter; 1X PBS, 0.1 mg/mL BSA, 30 min RT; conditions: tags: R&D Systems, carrier free; label: 32P
T2 sequence (Q9NPF7 20-189, chain 1 of 2): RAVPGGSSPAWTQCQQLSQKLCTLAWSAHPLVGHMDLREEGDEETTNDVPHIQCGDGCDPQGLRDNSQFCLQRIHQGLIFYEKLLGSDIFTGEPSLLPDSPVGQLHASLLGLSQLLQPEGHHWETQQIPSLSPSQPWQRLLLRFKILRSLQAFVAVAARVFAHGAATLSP
T2 sequence (P29460 23-328, chain 2 of 2): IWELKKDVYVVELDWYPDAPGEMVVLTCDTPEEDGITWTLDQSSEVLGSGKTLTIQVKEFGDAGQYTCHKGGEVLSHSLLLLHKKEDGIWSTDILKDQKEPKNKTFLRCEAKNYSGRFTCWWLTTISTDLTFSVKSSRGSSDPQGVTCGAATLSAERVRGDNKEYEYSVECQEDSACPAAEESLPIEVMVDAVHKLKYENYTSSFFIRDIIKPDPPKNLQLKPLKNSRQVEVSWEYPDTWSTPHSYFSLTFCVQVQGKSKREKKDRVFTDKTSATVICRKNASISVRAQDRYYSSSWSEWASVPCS
Method: as §1

[3] = target: T3, IL-12 (human, p35/p40 heterodimer) (Homo sapiens, UniProt P29459;P29460 SEQ:57-253,SEQ:23-328); assay: filter; 1X PBS, 0.1 mg/mL BSA, 30 min RT; conditions: label: 32P
T3 sequence (P29459 23-219, chain 1 of 2): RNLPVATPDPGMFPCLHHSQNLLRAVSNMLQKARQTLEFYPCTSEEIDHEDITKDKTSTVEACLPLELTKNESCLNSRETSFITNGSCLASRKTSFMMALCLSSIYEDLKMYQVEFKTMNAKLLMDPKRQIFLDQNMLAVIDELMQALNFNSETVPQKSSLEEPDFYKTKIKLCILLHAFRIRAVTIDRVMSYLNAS
T3 sequence (P29460 23-328, chain 2 of 2): as the sequence (P29460 23-328, chain 2 of 2) above
Method: as §1

[4] = target: T4, IL-12 (mouse, p35/p40 heterodimer) (Mus musculus, UniProt P43431;P43432 SEQ:23-215,SEQ:23-335); assay: filter; 1X PBS, 0.1 mg/mL BSA, 30 min RT; conditions: label: 32P
T4 sequence 1: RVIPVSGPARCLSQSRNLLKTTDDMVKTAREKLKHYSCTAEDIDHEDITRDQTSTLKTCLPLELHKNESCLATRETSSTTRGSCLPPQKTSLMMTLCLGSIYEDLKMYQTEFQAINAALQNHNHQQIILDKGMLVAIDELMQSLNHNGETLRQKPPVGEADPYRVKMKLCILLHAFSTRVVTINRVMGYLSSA
T4 sequence 2: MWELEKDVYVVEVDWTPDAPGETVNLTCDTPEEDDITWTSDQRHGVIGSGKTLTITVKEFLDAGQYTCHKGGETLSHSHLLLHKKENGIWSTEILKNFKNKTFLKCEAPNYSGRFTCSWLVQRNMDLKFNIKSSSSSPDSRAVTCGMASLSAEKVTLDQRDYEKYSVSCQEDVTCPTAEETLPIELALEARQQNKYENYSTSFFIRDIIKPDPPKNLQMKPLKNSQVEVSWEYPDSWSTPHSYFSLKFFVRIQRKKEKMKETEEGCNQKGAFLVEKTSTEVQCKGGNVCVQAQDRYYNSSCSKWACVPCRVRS
Method: as §1

[5] = target: T2, IL-23 (human, p19/p40 heterodimer); assay: filter; 1X PBS, tRNA, ssDNA, BSA, 30 min RT; conditions: tags: R&D Systems, carrier free; label: 5'-32P; G4 (predicted)
Method: (§2) The clones were 5′end labeled with γ-³²P ATP, and were assayed for both IL-23 and IL-12 binding in a 3-point dot blot screen (0 nM, 20 nM, and 100 nM h-IL-23; 0 nM, 20 nM, and 100 nM h-IL-12) (data not shown). […] KD values were determined by fitting an equation describing a 1:1 RNA:protein complex to the resulting data (fraction aptamer bound=amplitude*([IL-23]/(KD+[IL-23]))+background binding) (KaleidaGraph v. 3.51, Synergy Software). Results of protein binding characterization for the higher affinity clones are tabulated in Table 13, and corresponding clone sequences are listed in Table 12.

[6] = target: T3, IL-12 (human, p35/p40 heterodimer); assay: filter; 1X PBS, tRNA, ssDNA, BSA, 30 min RT; conditions: label: 5'-32P; G4 (predicted)
Method: as §2

[7] = target: T2, IL-23 (human, p19/p40 heterodimer); assay: filter; PBS, tRNA, ssDNA, BSA; conditions: tags: R&D Systems, carrier free
Method: as §2

[8] = target: T3, IL-12 (human, p35/p40 heterodimer); assay: filter; PBS, tRNA, ssDNA, BSA
Method: as §2

[9] = target: T2, IL-23 (human, p19/p40 heterodimer); assay: filter; +tRNA; conditions: tags: R&D Systems, carrier free

B1: ARC1628 (ssRNA)
RNA: GGAGCGCACUCAGCCACAGGUGGCUUAAUACUGUAAAGACGUGCGCGCAGAGGGAUUUUCGACCUCUCUGCUAGC
modifications: 2'-F all C and U (rRfY)
Kd [1]: 2 nM
Kd [2]: 52 nM
Kd [3]: 161 nM
Kd [4]: 6 nM

B2: ARC1634 (ssRNA)
RNA: GGAGCGCACUCAGCCACCUUGGGCUUAAUACCUAUCGGAUGUGCGCCUAGCACGGAAUUUCGACCUCUCUGCUAGC
modifications: 2'-F all C and U (rRfY)
Kd [1]: 3 nM
Kd [2]: 39 nM
Kd [3]: 63 nM
Kd [4]: 29 nM

B3: ARC614 (mixed)
RNA: GGGAGAGGAGAGAACGUUCUACAAGGCGGUACGGGGAGUGUGGGUUGGGGCCGGUCGAUCGAUCGAUCAUCGAUG
modifications: 2'-deoxy A and G, 2'-OMe C and U (dRmY)
Kd [5]: 3.1 nM
Kd [6]: 54.4 nM

B4: ARC612 (mixed)
RNA: GGGAGAGGAGAGAACGUUCUACAGGCAAGUAAUUGGGGAGUGCGGGCGGGGGGGUCGAUCGAUCGAUCAUCGAUG
modifications: 2'-deoxy A and G, 2'-OMe C and U (dRmY)
Kd [5]: 5.8 nM
Kd [6]: 41.7 nM

B5: ARC627 (mixed)
RNA: GGGAGAGGAGAGAACGUUCUACAGGCAAGUAAUUGGGGAGUGCGGGCGGGGUGUCGAUCGAUCGAUCAUCGAUG
modifications: 2'-deoxy A and G, 2'-OMe C and U (dRmY)
Kd [5]: 7 nM
Kd [6]: 79.5 nM

B6: ARC626 (mixed)
RNA: GGGAGAGGAGAGAACGUUCUACAGGCAAGUAAUUGGGGAGUGCGGGCGGGGGGUCGAUCGAUCGAUCAUCGAUG
modifications: 2'-deoxy A and G, 2'-OMe C and U (dRmY)
Kd [5]: 10.1 nM
Kd [6]: 69.8 nM

B7: ARC1632 (ssRNA)
RNA: GGAGCGCACUCAGCCACCGGCUUAAUAUCCAAUAGGAACGUUCGCUCUGAGCAGGCGUUUCGACCUCUCUGCUAGC
modifications: 2'-F all C and U (rRfY)
Kd [1]: 13 nM
Kd [2]: 91 nM
Kd [3]: 186 nM
Kd [4]: 16 nM

B8: ARC616 (mixed)
RNA: GGGAGAGGAGAGAACGUUCUACGAUAUAGGCGGUACGGGGGGAGUGGGCUGGGGUCGAUCGAUCGAUCAUCGAUG
modifications: 2'-deoxy A and G, 2'-OMe C and U (dRmY)
Kd [5]: 13.1 nM
Kd [6]: 52.1 nM

B9: ARC1630 (ssRNA)
RNA: GGAGCGCACUCAGCCACUCUACUCGAUAUAGUUUAUCGAGCCGGUGGUAGAUUAUGAUUUCGACCUCUCUGCUAGC
modifications: 2'-F all C and U (rRfY)
Kd [1]: 14 nM
Kd [2]: 65 nM
Kd [3]: 239 nM
Kd [4]: 18 nM

B10: ARC1633 (ssRNA)
RNA: GGAGCGCACUCAGCCACAGCUCGGUGGCUUAAUAUCUAUGUGAACGUGCGCAACAGCUUUCGACCUCUCUGCUAGC
modifications: 2'-F all C and U (rRfY)
Kd [1]: 17 nM
Kd [2]: 79 nM
Kd [3]: 195 nM
Kd [4]: 44 nM

B11: ARC632 (mixed)
RNA: GGGAGAGGAGAGAACGUUCUACAAUUGCAGGUGGUGCCGGGGGUUGGGGGCGGGUCGAUCGAUCGAUCAUCGAUG
modifications: 2'-deoxy A and G, 2'-OMe C and U (dRmY)
Kd [5]: 19.1 nM
Kd [6]: 63.9 nM

B12: ARC611 (mixed)
RNA: GGGAGAGGAGAGAACGUUCUACAGGCAAGGCAAUUGGGGAGUGUGGGUGGGGGGUCGAUCGAUCGAUCAUCGAUG
modifications: 2'-deoxy A and G, 2'-OMe C and U (dRmY)
Kd [5]: 21.3 nM
Kd [6]: 123 nM

B13: ARC621 (mixed)
RNA: GGGAGAGGAGAGAACGUUCUACAGGCGGUUACGGGGGAUGCGGGUGGGACAGGUCGAUCGAUCGAUCAUCGAUG
modifications: 2'-deoxy A and G, 2'-OMe C and U (dRmY)
Kd [5]: 28.8 nM
Kd [6]: 112 nM

B14: ARC645 (mixed)
RNA: GGGAGAGGAGAGAACGUUCUACAGGUAGGCAAGAUAUUGGGGGAAGCGGGUGGGGUCGAUCGAUCGAUCAUCGAUG
modifications: deoxy A,G; 2'-OMe C,U
Kd [7]: 33.5 nM
Kd [8]: 137 nM

B15: ARC644 (mixed)
RNA: GGGAGAGGAGAGAACGUUCUACUAGUGAGGCGGUAACGGGGGGUGAGGGUGGGGUCGAUCGAUCGAUCAUCGAUG
modifications: deoxy A,G; 2'-OMe C,U
Kd [7]: 34.5 nM
Kd [8]: 193 nM

B16: ARC642 (mixed)
RNA: GGGAGAGGAGAGAACGUUCUACAGGCGCAGCCAGCGGGGAGUGAGGGUGGGGGUCGAUCGAUCGAUCAUCGAUG
modifications: deoxy A,G; 2'-OMe C,U
Kd [7]: 37.2 nM
Kd [8]: 188 nM

B17: ARC620 (mixed)
RNA: GGGAGAGGAGAGAACGUUCUACAGGAAAGGCGCUUGCGGGGGGUGAGGGAGGGGUCGAUCGAUCGAUCAUCGAUG
modifications: deoxy A,G; 2'-OMe C,U
Kd [7]: 44.8 nM
Kd [8]: 179 nM

B18: ARC628 (mixed)
RNA: GGGAGAGGAGAGAACGUUCUACAGGCAAGGCAAUUGGGGAGCGUGGGUGGGGGGGUCGAUCGAUCGAUCAUCGAUG
modifications: deoxy A,G; 2'-OMe C,U
Kd [7]: 57.8 nM
Kd [8]: 146 nM

B19: ARC643 (mixed)
RNA: GGGAGAGGAGAGAACGUUCUACAGGCCGAUGAGGGGGAGCAGUGGGUGGGGGGUCGAUCGAUCGAUCAUCGAUG
modifications: deoxy A,G; 2'-OMe C,U
Kd [7]: 71.6 nM
Kd [8]: 309 nM

B20: ARC635 (mixed)
RNA: GGGAGAGGAGAGAACGUUCUACAGGCUCAAAAGAGGGGGAUGUGGGAGGGGGUCGAUCGAUCGAUCAUCGAUG
modifications: deoxy A,G; 2'-OMe C,U
Kd [7]: 172 nM
Kd [8]: 431 nM

B21: ARC646 (mixed)
RNA: GGGAGAGGAGAGAACGUUCUACACAUGGCUCGAAAGAGGGGCGUGAGGGUGGGGUCGAUCGAUCGAUCAUCGAUG
modifications: deoxy A,G; 2'-OMe C,U
Kd [7]: 208 nM
Kd [8]: 383 nM

CCAGGCAAGGUAAUUGGGGAGUGCGGGCGGGGUGG (mixed, deoxy A,G; 2'-OMe C,U) [ARC890]
Kd [9]: 114 nM

ACAGGCAAGGUAAUUGGGGAGUGCGGGCGGGGUGU (mixed, deoxy A,G; 2'-OMe C,U) [ARC889]
Kd [9]: 115 nM

CCAGGCAAGUAAUUGGGGAGUGCGGGCGGGGUGG (mixed, deoxy A,G; 2'-OMe C,U) [ARC980]
Kd [9]: 139 nM

GGCAAGGUAAUUGGGAAGUGUGGGCGGGG (mixed, deoxy A,G; 2'-OMe C,U) [ARC891]
Kd [9]: 177 nM

GGCAAGGUAAUUGGGUAGUGAGGGCGGGG (mixed, deoxy A,G; 2'-OMe C,U) [ARC892]
Kd [9]: 255 nM

GGCAAGGUAAUUGGGGAGUGCGGGCUGGG (mixed, deoxy A,G; 2'-OMe C,U) [ARC893]
Kd [9]: 2860 nM
